Laboratory results published in US20220265772A1, “USES OF DAN FAMILY BMP ANTAGONISTS FOR INHIBITING OCULAR NEOVASCULARIZATION AND TREATING OCULAR CONDITIONS” (9636137 Canada Inc., priority 2019, published 2022).

What was measured:
[1] = tested on: HUVECs; test: VEGF-induced tube formation (sprouting assay) of HUVECs in 3D fibrin gels; format: cell-based, human; conditions: for VEGF-induced tube formation: HUVECs in fibrin gel, 25 ng/ml VEGF, DAND5 0, 15, 30 or 60 ng/ml
Experimental: Sprouting assays were performed as previously described (2). Briefly, HUVECs (250,000 cells/well in 6-well plates) were resuspended in 300 μl fibrinogen solution (2.5 mg/ml fibrinogen, Sigma-Aldrich) in EBM-2 (Lonza) supplemented with 2% FBS and 50 μg/ml aprotinin (Sigma-Aldrich), and plated on top of a pre-coated fibrin layer (400 μl fibrinogen solution clotted with 1 U thrombin (Sigma-Aldrich) for 20 min at 37° C.). The second layer of fibrin was clotted for 1 hr at 37° C. NHDF cells (250,000 cells/well), in EBM-2 supplemented with 2% FBS and 25 ng/ml VEGF, with or without DAND5 (0, 15, 30 or 60 ng/ml), were then plated on top of the fibrin layers. Cultures were incubated at 37° C., 5% CO2.
To test whether DAND5 affects sprouting angiogenesis, human umbilical vein endothelial cells (HUVECs) were cultured in 3D fibrin gels and tube formation was induced with VEGF as previously described (2).

[2] = tested on: HUVECs; test: Endothelial cell proliferation (phospho-histone H3, neutral red, EdU flow cytometry); format: cell-based, human
Experimental: Sub-confluent HUVECs were cultured overnight in starvation medium (EBM2-1% FBS) in the presence or absence of 60 ng/ml DAND5, followed by VEGF stimulation for 1 hour. HUVECs were subjected with a pulse of 5-ethynyl-2′-deoxyuridine (EdU) for 1 hour, and flow cytometry analysis of EdU incorporation was performed as previously described.
The effects of DAND5 on EC proliferation were assessed by treating sub-confluent HUVECs with complete EC medium for 18 hours with DAND5. Cell mitosis was measured by evaluating the proportion phospho-histone H3 (PH3)-positive ECs following DAND5 treatment.

[3] = tested on: HUVECs; test: Apoptosis of cultured endothelial cells (cleaved caspase 3); format: cell-based, human; conditions: HUVECs cultured for 18 hours
[4] = tested on: pathological retinal neovascularization; test: Oxygen-induced retinopathy (OIR); format: in vivo, mouse
Experimental: C57BL/6J mouse pups at postnatal day (P)7 and their fostering mothers (CD1, Charles River) were submitted to 75% oxygen in oxycycler chamber for 5 days. Pups were then returned to normoxia at P12 and administered 100 ng of recombinant human DAND5 intravitreally or similar volume of vehicle in the contralateral eye. Eyes were enucleated at P17 and processed for immunostaining. Ocular globes were initially fixed for 15 min in 4% paraformaldehyde (PFA). Retinas or choroids were collected after eyes dissection in PBS and blocked 1 h in PBS 3% BSA 0.1% Triton X-100TM. Fixation was prolonged in 1% PFA overnight for choroid extraction or eyes sectioning. Prior to sectioning, eyes were maintained in sucrose gradients (10-30%), cryo-preserved in a matrix gel and sliced in 14 μm sections on a cryostat (LeicaTM C[…]). Staining with either FITC-labeled isolectin GS 1B4 (Life technologies corporation), rhodamine phalloidin (Cedarlane Laboratories), phospho-histone H3 (Abcam), Collagen IV (Abcam) or cleaved caspase-3 (Cell Signaling) antibodies were performed on whole and/or sectioned retinas/choroids. Retinas and choroids were then mounted in fluoromount aqueous medium (Sigma-Aldrich). Quantitative analysis of tufts, vaso-obliterated or vessel areas were performed using imageJ/Swift_NVTM as previously described (1). Neovascular tuft formation was quantified by comparing the number of pixels in the affected areas with the total number of pixels in the retina. The avascular area in the retina was measured in the same way using an anti-DAND5/COCO polyclonal goat IgG antibody (AF3047, R&D systems). The effects of DAND5 on postnatal developmental angiogenesis led us to evaluate its effects on pathological angiogenesis by subjecting mouse pups to Oxygen-induced Retinopathy (OIR). Briefly, P7 pups were placed in 75% oxygen for 5 days, leading to vaso-obliteration of the retinal vascular plexus. At P12, pups were returned to room air, which stimulates retinal angiogenesis, and leads to the formation of a pathological vascular retinal network characterized by neovascular tufts (FIG. 5A).

[5] = tested on: HUVECs; test: Free radicals / ROS in HUVECs (DCFDA, MitoSoxRed); format: cell-based, human; conditions: HUVECs
Experimental: FIG. 8 is a panel with graphs and pictures showing that Dand5 induces mitochondrial oxidative stress and alters ATP levels in HUVECs. FIG. 8A: HUVEC cells were treated with Dand5 in the presence or not of N-acetylcysteine (NAC) for up to 48 hours. Cells were then incubated with H2DCFDA. Hydrogen peroxide treated cells (H2O2) were included as a positive control. Fluorescence was measured at Ex: 485 nm and Em: 535 nm in a plate reader. Relative Fluorescence Units (RFU) were generated by normalizing the reading of each well to Hoescht staining (n=3,*p<0.05 **p<0.001). FIG. 8B: HUVEC cells were treated with Dand5 in for up to 48 hours. Cells were incubated with MitoSox Red. 3-nitro-proprionic acid (3-NP) treated cells were also examined as a positive control. Fluorescence was measured at Ex: 544 nm and Em: 590 nm. Relative Fluorescence Units (RFU) were generated by normalizing the reading of each well to Hoescht staining (n=3,*p<0.05). FIG. 8C: Primary culture of choroidal sprouts were treated with Dand5 in the absence or presence of NAC. FIG. 8D: Quantification of sprouting area by Image J. FIG. 8E: The ratio of NAD+ to NADH in whole cell extracts was determined using an Alcohol Dehydrogenase/Malate Dehydrogenase enzymatic cycling assay. Cells treated to hypoxic conditions (4% O2 for 3 hours) were included as a positive control (n=3,*p<0.05, **p<0.01). Likewise, glucose uptake was reduced in Dand5-treated HUVECs after 1 hour, while lactate levels were increased (lower panel). FIG. 8F: ATP levels were reduced in HUVECs exposed to Dand5 at 1, 6 and 24 hours (n=3,*p=0.05).
We exposed or not HUVECs to recombinant DAND5 and measured the concentration of free radicals using DCFDA and MitoSoxRed™. […] To further test this, we measure the NAD+/NADH ratio in cells treated or not with DAND5. […] Likewise, glucose uptake was reduced and lactate levels were increased in DAND5-treated HUVECs after 1 h (FIG. 8E, lower panel).

B1: DAND5: human recombinant DAND5/COCO biologically active fragment produced in E. coli, predicted 18.2 kDa monomer, R&D systems 3047-CC-050 (protein)
chain: MRPEPQSPRPQSWAAANQTWALGPGALPPLVPASALGSWKAFLGLQKARQLGMGRLQRGQDEVAAVTLPLNPQEVIQGMCKAVPFVQVFSRPGCSAIRLRNHLCFGHCSSLYIPGSDPTPLVLCNSCMPARKRWAPVVLWCLTGSSASRRRVKISTMLIEGCHCSPKA
Q: B1 was tested. Which VEGF-induced tube formation [1] did it give?
A: efficiently suppressed VEGF-induced tube formation in a dose-dependent manner

Q: And the VEGF-induced tube formation ([1]; listed as Dand5)?
A: inhibited tube formation in a dose dependent manner

Q: And the vascular tube area ([1]; quantification of endothelial tubes, increasing concentrations of DAND5)?
A: significant reduction in vascular tube area with increasing concentrations

Q: What about the EdU incorporation ([2]; HUVECs, 60 ng/ml DAND5 overnight, VEGF stimulation) of the same molecule?
A: reduced Edu incorporation in response to VEGF stimulation

Q: What about the “proliferation of cultured ECs, cell numbers by neutral red incorporation” value ([2]; HUVECs, 6 days) of the same molecule?
A: prevented the proliferation of cultured ECs

Q: And the “phospho-histone H3 (PH3) staining, mitotic index” value ([2]; sub-confluent HUVECs, complete EC medium, 18 hours)?
A: significant decrease in PH3 staining

Q: And the “proportion of cleaved caspase 3 (CC3)-positive cells” value [3]?
A: did not show differences in the proportion of cleaved caspase 3 (CC3)-positive cells

Q: What about the “effect on neovascularization compared with Flt1 Fc” value [4] of the same molecule?
A: stronger effect on neovascularization than Flt1 Fc

Q: And the pathological neovascularization ([4]; 100 ng intravitreal at P12, retinas at P17)?
A: significantly reduced pathological neovascularization

Q: What about the “revascularization of the central part of the retina” value ([4]; injection at P12, P17) of the same molecule?
A: not affected

Q: What about the “amount and size of neovascular tufts” value ([4]; injection at P12, P17, compared to PBS) of the same molecule?
A: significantly reduced

Q: What about the “free radicals (DCFDA)” value ([5]; 24 h and 48 h post-treatment) of the same molecule?
A: induced elevation of free radicals 24 h and 48 h post-treatment

Q: What about the “mitochondrial reactive oxygen species (MitoSoxRed), time course” value ([5]; time-course analysis) of the same molecule?
A: induced before cytosolic ROS
